Here are results for 21 molecules from patent publication US20240270839A1 (ELPISCIENCE SUZHOU BIOPHARMA, published 2024).

B1: hu22E12.H2L2 (antibody, V domains shown)
VH: QVQLVQSGAEVKKPGASVKVSCKASGYTFTNWVHWVRQAPGQGLEWMGEINPTNARSNYNEKFKKRVTMTRDRSTSTVYMELSSLRSEDTAVYFCAGIYYGNSFAHWGQGTLVTVSS
VL: DIVMTQSPDSLAVSLGERATINCKSSQSLLNAGNQKNYLTWYQQKPGQPPKLLIYWSSTRESGVPDRFSGSGSGTDFTLTISSLQAEDVAVYHCQNNYYYPLTFGGGTKLEIK
notes: humanized 22E12
B2: hu22E12.H4L1 (antibody, V domains shown)
VH: QVQLVQSGAEVVKPGASVKLSCKASGYTFTNWVHWVIQAPGQGLEWIGEINPTNARSNYNEKFKKRVTLTLDRSTSTVYMELSSLRSEDTAVYFCAGIYYGNSFAHWGQGTLVTVSS
VL: DIVMTQSPDSLAVSLGERATINCKSSQSLLNAGNQKNYLTWYQQKPGQPPKLLIYWSSTRESGVPDRFSGSGSGTDFTLTISSLQAEDVAVYYCQNNYYYPLTFGGGTKLEIK
notes: humanized 22E12
B3: hu22E12.H2L3 (antibody, V domains shown)
VH: QVQLVQSGAEVKKPGASVKVSCKASGYTFTNWVHWVRQAPGQGLEWMGEINPTNARSNYNEKFKKRVTMTRDRSTSTVYMELSSLRSEDTAVYFCAGIYYGNSFAHWGQGTLVTVSS
VL: DIVMTQSPDSLAVSLGERVTLNCKSSQSLLNAGNQKNYLTWYQQKPGQPPKLLIYWSSTRESGVPDRFSGSGSGTDFTLTISSVQAEDVAVYHCQNNYYYPLTFGGGTKLEIK
notes: humanized 22E12
B4: hu22E12.H1L1 (antibody, V domains shown)
VH: QVQLVQSGAEVKKPGASVKVSCKASGYTFTNWVHWVRQAPGQGLEWMGEINPTNARSNYNEKFKKRVTMTRDTSTSTVYMELSSLRSEDTAVYYCARIYYGNSFAHWGQGTLVTVSS
VL: DIVMTQSPDSLAVSLGERATINCKSSQSLLNAGNQKNYLTWYQQKPGQPPKLLIYWSSTRESGVPDRFSGSGSGTDFTLTISSLQAEDVAVYYCQNNYYYPLTFGGGTKLEIK
notes: humanized 22E12
B5: hu22E12.H4L3 (antibody, V domains shown)
VH: QVQLVQSGAEVVKPGASVKLSCKASGYTFTNWVHWVIQAPGQGLEWIGEINPTNARSNYNEKFKKRVTLTLDRSTSTVYMELSSLRSEDTAVYFCAGIYYGNSFAHWGQGTLVTVSS
VL: DIVMTQSPDSLAVSLGERVTLNCKSSQSLLNAGNQKNYLTWYQQKPGQPPKLLIYWSSTRESGVPDRFSGSGSGTDFTLTISSVQAEDVAVYHCQNNYYYPLTFGGGTKLEIK
notes: humanized 22E12
B6: hu22E12.H1L3 (antibody, V domains shown)
VH: QVQLVQSGAEVKKPGASVKVSCKASGYTFTNWVHWVRQAPGQGLEWMGEINPTNARSNYNEKFKKRVTMTRDTSTSTVYMELSSLRSEDTAVYYCARIYYGNSFAHWGQGTLVTVSS
VL: DIVMTQSPDSLAVSLGERVTLNCKSSQSLLNAGNQKNYLTWYQQKPGQPPKLLIYWSSTRESGVPDRFSGSGSGTDFTLTISSVQAEDVAVYHCQNNYYYPLTFGGGTKLEIK
notes: humanized 22E12
B7: hu22E12.H3L2 (antibody, V domains shown)
VH: QVQLVQSGAEVVKPGASVKVSCKASGYTFTNWVHWVIQAPGQGLEWMGEINPTNARSNYNEKFKKRVTMTLDRSTSTVYMELSSLRSEDTAVYFCAGIYYGNSFAHWGQGTLVTVSS
VL: DIVMTQSPDSLAVSLGERATINCKSSQSLLNAGNQKNYLTWYQQKPGQPPKLLIYWSSTRESGVPDRFSGSGSGTDFTLTISSLQAEDVAVYHCQNNYYYPLTFGGGTKLEIK
notes: humanized 22E12
B8: hu22E12.H3L3 (antibody, V domains shown)
VH: QVQLVQSGAEVVKPGASVKVSCKASGYTFTNWVHWVIQAPGQGLEWMGEINPTNARSNYNEKFKKRVTMTLDRSTSTVYMELSSLRSEDTAVYFCAGIYYGNSFAHWGQGTLVTVSS
VL: DIVMTQSPDSLAVSLGERVTLNCKSSQSLLNAGNQKNYLTWYQQKPGQPPKLLIYWSSTRESGVPDRFSGSGSGTDFTLTISSVQAEDVAVYHCQNNYYYPLTFGGGTKLEIK
notes: humanized 22E12
B9: hu22E12.H4L2 (antibody, V domains shown)
VH: QVQLVQSGAEVVKPGASVKLSCKASGYTFTNWVHWVIQAPGQGLEWIGEINPTNARSNYNEKFKKRVTLTLDRSTSTVYMELSSLRSEDTAVYFCAGIYYGNSFAHWGQGTLVTVSS
VL: DIVMTQSPDSLAVSLGERATINCKSSQSLLNAGNQKNYLTWYQQKPGQPPKLLIYWSSTRESGVPDRFSGSGSGTDFTLTISSLQAEDVAVYHCQNNYYYPLTFGGGTKLEIK
notes: humanized 22E12
B10: hu22E12.H3L1 (antibody, V domains shown)
VH: QVQLVQSGAEVVKPGASVKVSCKASGYTFTNWVHWVIQAPGQGLEWMGEINPTNARSNYNEKFKKRVTMTLDRSTSTVYMELSSLRSEDTAVYFCAGIYYGNSFAHWGQGTLVTVSS
VL: DIVMTQSPDSLAVSLGERATINCKSSQSLLNAGNQKNYLTWYQQKPGQPPKLLIYWSSTRESGVPDRFSGSGSGTDFTLTISSLQAEDVAVYYCQNNYYYPLTFGGGTKLEIK
notes: humanized 22E12
B11: hu22E12.H2L1 (antibody, V domains shown)
VH: QVQLVQSGAEVKKPGASVKVSCKASGYTFTNWVHWVRQAPGQGLEWMGEINPTNARSNYNEKFKKRVTMTRDRSTSTVYMELSSLRSEDTAVYFCAGIYYGNSFAHWGQGTLVTVSS
VL: DIVMTQSPDSLAVSLGERATINCKSSQSLLNAGNQKNYLTWYQQKPGQPPKLLIYWSSTRESGVPDRFSGSGSGTDFTLTISSLQAEDVAVYYCQNNYYYPLTFGGGTKLEIK
notes: humanized 22E12
B12: hu35B4.H2L2 (antibody, V domains shown)
VH: EVQLLESGGGLVQPGGSLRLSCAASGFTLSSYALSWVRQAPGKGLEWVSYISNLGGSTFYPDTVKGRFTISRDNSKNTLYLQMNSLRAEDTAVYYCATHLYNYDAFASWGQGTLVTVSS
VL: DIQLTQSPSFLSASVGDRVTITCRASSSVNYIHWYQQKPGKAPKALIYATSNLASGVPSRFSGSGSGTEYTLTISSLQPEDFATYYCQQWNSNPLTFGQGTKLEIK
notes: humanized 35B4
B13: hu35B4.H1L4 (antibody, V domains shown)
VH: EVQLLESGGGLVQPGGSLRLSCAASGFTLSSYALSWVRQAPGKGLEWVSYISNLGGSTFYPDTVKGRFTISRDNSKNTLYLQMNSLRAEDTAVYYCAKHLYNYDAFASWGQGTLVTVSS
VL: DIQLTQSPSFLSASVGDRVTMTCRASSSVNYIHWYQQKPGKSPKALIYATSNLASGVPSRFSGSGSGTEYTLTISSVQPEDFATYYCQQWNSNPLTFGQGTKLEIK
notes: humanized 35B4
B14: hu35B4.H2L4 (antibody, V domains shown)
VH: EVQLLESGGGLVQPGGSLRLSCAASGFTLSSYALSWVRQAPGKGLEWVSYISNLGGSTFYPDTVKGRFTISRDNSKNTLYLQMNSLRAEDTAVYYCATHLYNYDAFASWGQGTLVTVSS
VL: DIQLTQSPSFLSASVGDRVTMTCRASSSVNYIHWYQQKPGKSPKALIYATSNLASGVPSRFSGSGSGTEYTLTISSVQPEDFATYYCQQWNSNPLTFGQGTKLEIK
notes: humanized 35B4
B15: hu35B4.H3L2 (antibody, V domains shown)
VH: EVQLLESGGGLVQPGGSLRLSCAASGFTLSSYALSWVRQAPGKGLEWVAYISNLGGSTFYPDTVKGRFTISRDNSKNTLYLQMNSLRAEDTAVYYCATHLYNYDAFASWGQGTLVTVSS
VL: DIQLTQSPSFLSASVGDRVTITCRASSSVNYIHWYQQKPGKAPKALIYATSNLASGVPSRFSGSGSGTEYTLTISSLQPEDFATYYCQQWNSNPLTFGQGTKLEIK
notes: humanized 35B4
B16: hu35B4.H1L3 (antibody, V domains shown)
VH: EVQLLESGGGLVQPGGSLRLSCAASGFTLSSYALSWVRQAPGKGLEWVSYISNLGGSTFYPDTVKGRFTISRDNSKNTLYLQMNSLRAEDTAVYYCAKHLYNYDAFASWGQGTLVTVSS
VL: DIQLTQSPSFLSASVGDRVTITCRASSSVNYIHWYQQKPGKSPKALIYATSNLASGVPSRFSGSGSGTEYTLTISSLQPEDFATYYCQQWNSNPLTFGQGTKLEIK
notes: humanized 35B4
B17: hu35B4.H1L1 (antibody, V domains shown)
VH: EVQLLESGGGLVQPGGSLRLSCAASGFTLSSYALSWVRQAPGKGLEWVSYISNLGGSTFYPDTVKGRFTISRDNSKNTLYLQMNSLRAEDTAVYYCAKHLYNYDAFASWGQGTLVTVSS
VL: DIQLTQSPSFLSASVGDRVTITCRASSSVNYIHWYQQKPGKAPKLLIYATSNLASGVPSRFSGSGSGTEFTLTISSLQPEDFATYYCQQWNSNPLTFGQGTKLEIK
notes: humanized 35B4
B18: hu35B4.H3L1 (antibody, V domains shown)
VH: EVQLLESGGGLVQPGGSLRLSCAASGFTLSSYALSWVRQAPGKGLEWVAYISNLGGSTFYPDTVKGRFTISRDNSKNTLYLQMNSLRAEDTAVYYCATHLYNYDAFASWGQGTLVTVSS
VL: DIQLTQSPSFLSASVGDRVTITCRASSSVNYIHWYQQKPGKAPKLLIYATSNLASGVPSRFSGSGSGTEFTLTISSLQPEDFATYYCQQWNSNPLTFGQGTKLEIK
notes: humanized 35B4
B19: hu35B4.H2L3 (antibody, V domains shown)
VH: EVQLLESGGGLVQPGGSLRLSCAASGFTLSSYALSWVRQAPGKGLEWVSYISNLGGSTFYPDTVKGRFTISRDNSKNTLYLQMNSLRAEDTAVYYCATHLYNYDAFASWGQGTLVTVSS
VL: DIQLTQSPSFLSASVGDRVTITCRASSSVNYIHWYQQKPGKSPKALIYATSNLASGVPSRFSGSGSGTEYTLTISSLQPEDFATYYCQQWNSNPLTFGQGTKLEIK
notes: humanized 35B4
B20: hu35B4.H2L1 (antibody, V domains shown)
VH: EVQLLESGGGLVQPGGSLRLSCAASGFTLSSYALSWVRQAPGKGLEWVSYISNLGGSTFYPDTVKGRFTISRDNSKNTLYLQMNSLRAEDTAVYYCATHLYNYDAFASWGQGTLVTVSS
VL: DIQLTQSPSFLSASVGDRVTITCRASSSVNYIHWYQQKPGKAPKLLIYATSNLASGVPSRFSGSGSGTEFTLTISSLQPEDFATYYCQQWNSNPLTFGQGTKLEIK
notes: humanized 35B4
B21: hu35B4.H3L3 (antibody, V domains shown)
VH: EVQLLESGGGLVQPGGSLRLSCAASGFTLSSYALSWVRQAPGKGLEWVAYISNLGGSTFYPDTVKGRFTISRDNSKNTLYLQMNSLRAEDTAVYYCATHLYNYDAFASWGQGTLVTVSS
VL: DIQLTQSPSFLSASVGDRVTITCRASSSVNYIHWYQQKPGKSPKALIYATSNLASGVPSRFSGSGSGTEYTLTISSLQPEDFATYYCQQWNSNPLTFGQGTKLEIK
notes: humanized 35B4

The target in the first experiment is T1, human CLDN18.2 (hCLDN18.2), expressed on cells (human).
T1 construct: the constructs in the cell lines are not described; also called Claudin18.2; HEK293-hCLDN18.2
Put plainly: FACS, MFC cells over-expressing hCLDN18.2.
Turning to B1, the EC50 was found to be 0.586 nM.

Molecule B2 gave an EC50 of 1.16 nM. The same measure, in the same setting: the same measure for B3: 0.642 nM; for B4: 1.31 nM. Same read-out and setting: the result for B5 reads 2 nM.

For the molecule B6, the EC50 came out at 1.08 nM. Still for that read-out and setting: the result for B7 reads 1.25 nM; that for B8, 1.19 nM. Same read-out and setting: the result for B9 reads 1.05 nM; that for B10, 1.23 nM. Molecule B11 came in with an EC50 of 0.656 nM.

Another experiment has as its target T1, human CLDN18.2 (hCLDN18.2), expressed …. Briefly: FACS, SNU620 cells over-expressing hCLDN18.2.
Regarding B12, the EC50 stood at 0.439 nM. Same read-out and setting: the same measure for B13: 0.474 nM. Same read-out and setting: the result for B14 reads 0.367 nM; that for B15, 0.297 nM; that for B16, 0.382 nM. Same read-out and setting: the same measure for B17: 0.525 nM; for B18: 0.258 nM.

The molecule B19 gave a 50% effective concentration (EC50) of 0.413 nM. In turn, B20 gave an EC50 of 0.355 nM. On to B21, for which a half-maximal response (EC50) required 0.319 nM.
